The values that follow come from patent US20140051120A1 (Genentech, published 2014).

The target of assay [1] is T1, p5 peptide of EGFL7 (human).
T1 construct: also called Peptide P5
T1 peptide: RACSTYRTIYRTA
Kind of assay: SPR (Biacore), IgG over immobilized P5 peptide at 37 C.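 Further: IgG variants injected at 0.5–1000 nM (2-fold series), 3 min association and 3.5 min dissociation, reference flow cell subtracted, kinetics fitted with a 1:1 Langmuir model.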 On the technique in general: In SPR one partner is held on a chip, and binding of the other changes the refractive index at the surface.

The target in assay [2] is T2, mouse EGFL7 (mEGFL7-CB-His) (mouse, UniProt Q9QXT5 22-275).
T2 sequence: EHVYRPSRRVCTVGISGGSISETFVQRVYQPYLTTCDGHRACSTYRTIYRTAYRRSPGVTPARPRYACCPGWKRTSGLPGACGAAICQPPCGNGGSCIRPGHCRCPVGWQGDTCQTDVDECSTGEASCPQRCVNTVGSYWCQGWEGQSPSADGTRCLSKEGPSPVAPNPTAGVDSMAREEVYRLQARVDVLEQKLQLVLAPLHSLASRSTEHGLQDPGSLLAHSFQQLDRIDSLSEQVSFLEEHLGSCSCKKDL
Kind of assay: SPR (Biacore), IgG over immobilized mEGFL7-CB at 37 C.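 Further: IgG injected as twofold series from 0.5 to 1000 nM, 3 min association and 3.5 min dissociation, reference flow cell subtracted, kinetics fitted to 1:1 Langmuir model.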

Assay [3] concerns the target T1, p5 peptide of EGFL7. Kind of assay: SPR (Biacore), IgG over immobilized P5 peptide at 37 C, n = 2.
For assay [4], the target named is T3, p2S (p2 peptide biotinylated through its free cysteine) (human, also: biotinylated (maleimide PEO2-biotin) on one of the two Cys, which one not given here).
T3 construct: The peptide has two cysteines; also called b-p2S
T3 peptide: RPRYACCPGWKRT
The assay is described as follows: SPR (BIAcore-2000), IgG injected over immobilized p2S peptide.

The target in assay [5] is T3, p2S (p2 peptide biotinylated through …). The assay is described as above.

Numbering of substitutions follows the chain as printed. Like-named read-outs stand apart in the source and are kept apart here. Where no end group is shown, it is not given here.

B1: 18F7.v3 IgG (antibody, name in Kabat numbering, V domains shown)
VH: EVQLVESGGGLVQPGGSLRLSCAASGYTFIDYYMNWVRQAPGKGLEWVGDINLDNGGTHYNQKFKGRFTISRDKSKNTAYLQMNSLRAEDTAVYYCAREGVYHDYDDYAMDYWGQGTLVTVSS
VL: DIQMTQSPSSLSASVGDRVTITCRTSQSLVHINGITYLHWYQQKPGKAPKLLIYRVSNRFSGVPSRFSGSGSGTDFTLTISSLQPEDFATYYCSQSTHVPLTFGQGTKVEIKR
notes: IgG; Kabat numbering; also called 18F7-KA
For orientation: Kd means the concentration at which binding is half-saturated. A higher Kd goes with a looser complex. A word on the koff: it is a measure of how fast the partners let go of each other. Lower therefore signals slow dissociation. The term kon denotes a measure of how fast the partners come together. A low value points to slow association. In the assay with p5 peptide of EGFL7 [1], B1 returned a Kd of 4.22 nM, a koff of 0.000858 s⁻¹ and a kon of 203000 M⁻¹ s⁻¹. In assay [2], binding was characterised by a dissociation constant (Kd) of 1.64 nM, the koff is 9.05e-05 s⁻¹ and the kon is 55000 M⁻¹ s⁻¹.

B2: 18F7.v6E IgG (antibody, V domains shown)
VH: B1 VH with G56S
VL: DIQMTQSPSSLSASVGDRVTITCRTSQSLVHISGITYLHWYQQKPGKAPKLLIYRVSNRFSGVPSRFSGSGSGTDFTLTISSLQPEDFATYYCGQSTHVPLTFGQGTKVEIK
notes: IgG; Variant of 18F7.v6
In the assay with p5 peptide of EGFL7 [1], B2 yielded a Kd of 5.1 nM, a koff of 0.00154 s⁻¹ and a kon of 303000 M⁻¹ s⁻¹. In assay [2], the affinity, expressed as Kd, was 9.9 nM; the koff is 0.000474 s⁻¹; the kon is 48000 M⁻¹ s⁻¹.

B3: 18F7.v6J IgG (antibody, V domains shown)
VH: B1 VH with G56S
VL: B2 VL with S33N, G34S
notes: IgG; Variant of 18F7.v6
In the assay with p5 peptide of EGFL7 [1], B3 registered an equilibrium dissociation constant (Kd) of 5.6 nM, a koff of 0.000607 s⁻¹ and a kon of 108000 M⁻¹ s⁻¹. For the same molecule, in assay [2], the Kd worked out at 0.8 nM, the koff is 1.64e-05 s⁻¹ and the on-rate (kon) amounted to 21000 M⁻¹ s⁻¹.

B4: 18F7.v6I IgG (antibody, V domains shown)
VH: B1 VH with G56S
VL: B2 VL with S33Q
notes: IgG; Variant of 18F7.v6
For the molecule B4, in the assay with p5 peptide of EGFL7 [1], the affinity, expressed as Kd, was 16.7 nM; the dissociation rate constant (koff) turned out to be 0.00316 s⁻¹; the kon was 190000 M⁻¹ s⁻¹. In assay [2], binding was put at a Kd of 21.3 nM, the koff worked out at 0.000488 s⁻¹ and the kon amounted to 23000 M⁻¹ s⁻¹.

B5: 18F7.v10 IgG (antibody, V domains shown)
VH: B1 VH with D104P
VL: B2 VL with S33N, G94S
notes: IgG; Kabat numbering
Take B5: in the assay with p5 peptide of EGFL7 [1], the Kd was determined as 0.982 nM, the koff is 0.000811 s⁻¹ and the kon was 825000 M⁻¹ s⁻¹. In assay [2], this molecule returned a Kd of 1.22 nM, a koff of 0.000195 s⁻¹ and an on-rate (kon) of 160000 M⁻¹ s⁻¹.

B6: 18F7.v2 IgG (antibody, name in Kabat numbering, V domains shown)
VH: B1 VH with A79L
VL: B1 VL
notes: IgG; Kabat numbering; also called 18F7-K
B6: in the assay with p5 peptide of EGFL7 [1], the Kd worked out at 2.59 nM, the koff was determined as 0.00119 s⁻¹ and the kon was 458000 M⁻¹ s⁻¹. Also, in assay [2], the Kd worked out at 1.81 nM, the off-rate (koff) came to 0.000198 s⁻¹ and the kon stood at 110000 M⁻¹ s⁻¹.

B7: 18F7.v8 IgG (antibody, V domains shown)
VH: B1 VH
VL: B2 VL with S33N, G94V
notes: IgG; Kabat numbering
On to B7, for which, in the assay with p5 peptide of EGFL7 [1], the Kd was 2.16 nM, the koff is 0.00102 s⁻¹ and the kon is 472000 M⁻¹ s⁻¹. In assay [2], this molecule had a dissociation constant (Kd) of 2.04 nM, a koff of 0.000199 s⁻¹ and a kon of 98000 M⁻¹ s⁻¹.

B8: 18F7.v9 IgG (antibody, V domains shown)
VH: B1 VH with Y32K
VL: B2 VL with S33N, G94S
notes: IgG; Kabat numbering
In the assay with p5 peptide of EGFL7 [1], B8 showed a Kd of 3.35 nM, an off-rate constant (koff) of 0.000763 s⁻¹ and a kon of 228000 M⁻¹ s⁻¹. In assay [2], the Kd came to 1.58 nM, the off-rate constant (koff) was 9.32e-05 s⁻¹ and the kon was 59000 M⁻¹ s⁻¹.

B9: 18F7.v4 IgG (antibody, name in Kabat numbering, V domains shown)
VH: B1 VH with A79V
VL: B1 VL
notes: IgG; Kabat numbering; also called 18F7-KV
For the molecule B9, in the assay with p5 peptide of EGFL7 [1], the affinity, expressed as Kd, was 7.27 nM; the koff stood at 0.00132 s⁻¹; the kon was determined as 182000 M⁻¹ s⁻¹. For the same molecule, in assay [2], the Kd was 4.15 nM, the koff amounted to 0.000208 s⁻¹ and the on-rate constant (kon) was found to be 50000 M⁻¹ s⁻¹.

B10: 18F7.v7 IgG (antibody, V domains shown)
VH: B1 VH
VL: B2 VL with S33N, G94A
notes: IgG; Kabat numbering
In the assay with p5 peptide of EGFL7 [1], B10 returned a Kd of 2.87 nM, a koff of 0.000718 s⁻¹ and a kon of 251000 M⁻¹ s⁻¹. In assay [2], this molecule gave a Kd of 1.38 nM, a koff of 9.58e-05 s⁻¹ and a kon of 70000 M⁻¹ s⁻¹.

B11: 18F7.v1 IgG (18F7-graft) (antibody, V domains shown)
VH: B1 VH with K74N, A79L
VL: B1 VL
notes: Expressed as IgG
Regarding B11, in the assay with p5 peptide of EGFL7 [1], the Kd turned out to be 6.3 nM, the off-rate (koff) was determined as 0.002 s⁻¹ and the kon came to 317000 M⁻¹ s⁻¹. Further, in assay [2], the Kd stood at 2.82 nM, the koff came to 0.000274 s⁻¹ and the kon stood at 97000 M⁻¹ s⁻¹.

B12: 18F7.v5 IgG (antibody, V domains shown)
VH: B1 VH
VL: B2 VL with S33N, F60G, G94S
notes: IgG; Kabat numbering
On to B12, for which, in the assay with p5 peptide of EGFL7 [1], the Kd turned out to be 2.7 nM, the koff came out at 0.000892 s⁻¹ and the kon was 330000 M⁻¹ s⁻¹. In assay [2], this molecule gave a dissociation constant (Kd) of 1.61 nM, a koff of 0.000117 s⁻¹ and a kon of 73000 M⁻¹ s⁻¹.

B13: 18F7.v6D IgG (antibody, V domains shown)
VH: B1 VH with N55S
VL: B2 VL
notes: IgG; Variant of 18F7.v6
For the molecule B13, in the assay with p5 peptide of EGFL7 [3], binding was put at a Kd of 9.77 nM, the koff was found to be 0.00232 s⁻¹ and the kon was 313000 M⁻¹ s⁻¹. In assay [2], this molecule had a Kd of 7.65 nM, a koff of 0.000791 s⁻¹ and a kon of 103000 M⁻¹ s⁻¹.

B14: 4F11.v15 IgG (antibody, name in Kabat numbering, V domains shown)
VH: EVQLVESGGGLVQPGGSLRLSCAASGHTFTTYGMSWVRQAPGKGLEWVGWINTHSGVPTYADDFKGRFTISLDNSKNTAYLQMNSLRAEDTAVYYCARLGSSAVDYWGQGTLVTVSS
VL: DIQMTQSPSSLSASVGDRVTITCKASQSVDYDGDSYMSWYQQKPGKAPKLLIYGASNLESGVPSRFSGSGSGTDFTLTISSLQPEDFATYYCQQNNEDPYTFGQGTKVEIKR
notes: IgG; Kabat numbering
In assay [4], B14 showed a Kd of 30.5 nM, a koff of 0.00276 s⁻¹ and a kon of 90500 M⁻¹ s⁻¹.

B15: 4F11.v5 IgG (antibody, V domains shown)
VH: B14 VH with L72R, A79V
VL: DIQMTQSPSSLSASVGDRVTITCKASQSVDYDGDSYVSWYQQKPGKAPKLLIYGASNLESGVPSRFSGSGSGTDFTLTISSLQPEDFATYYCQQNNEDPYTFGQGTKVEIK
notes: IgG; Kabat numbering
In assay [5], B15 had a Kd of 34 nM, a koff of 0.00242 s⁻¹ and a kon of 71100 M⁻¹ s⁻¹.

B16: 4F11.v9 IgG (antibody, V domains shown)
VH: B14 VH with F29R, L72R, A79V
VL: B15 VL with V37M
notes: IgG; Kabat numbering
As to B16, in assay [5], binding was characterised by a dissociation constant (Kd) of 9 nM, the off-rate (koff) was 0.0023 s⁻¹ and the association rate constant (kon) turned out to be 264000 M⁻¹ s⁻¹.

B17: 4F11.v4 IgG (antibody, V domains shown)
VH: B14 VH with L72R, A79V
VL: B15 VL with D32R, V37M
notes: IgG; Kabat numbering
For the molecule B17, in assay [5], binding was characterised by a dissociation constant (Kd) of 13.6 nM, the koff amounted to 0.00314 s⁻¹ and the kon came out at 231000 M⁻¹ s⁻¹.

B18: 4F11.v1 IgG (antibody, V domains shown)
VH: B14 VH with L72R, A79L
VL: B14 VL
notes: Expressed as IgG in 293 cells; also called 4F11-graft; direct CDR-graft
In assay [5], B18 gave a Kd of 96.8 nM, a koff of 0.00331 s⁻¹ and a kon of 34200 M⁻¹ s⁻¹.

B19: 4F11.v12 IgG (antibody, V domains shown)
VH: B14 VH with T53I, L72R, A79V
VL: B15 VL with V37M
notes: IgG; Kabat numbering
In the case of B19, in assay [5], binding was characterised by a dissociation constant (Kd) of 11.1 nM, the koff was found to be 0.00218 s⁻¹ and the kon came to 196000 M⁻¹ s⁻¹.

B20: 4F11.v3 IgG (antibody, name in Kabat numbering, V domains shown)
VH: B14 VH with L72R, A79V
VL: B14 VL
notes: IgG; Kabat numbering
B20: in assay [5], the Kd came to 34.6 nM, the koff is 0.00292 s⁻¹ and the kon came to 84500 M⁻¹ s⁻¹.

B21: 4F11.v13 IgG (antibody, name in Kabat numbering, V domains shown)
VH: B14 VH
VL: B14 VL with M4L
notes: IgG; Kabat numbering
In assay [4], B21 had a Kd of 12.5 nM, a koff of 0.00186 s⁻¹ and a kon of 149000 M⁻¹ s⁻¹.

B22: 4F11.v2 IgG (antibody, name in Kabat numbering, V domains shown)
VH: B14 VH with L72R, A79T
VL: B14 VL
notes: IgG; Kabat numbering
Regarding B22, in assay [5], the affinity, expressed as Kd, was 54.4 nM; the koff was 0.00291 s⁻¹; the kon is 53500 M⁻¹ s⁻¹.
